We go through four substances from US20180066017A1, “CLASS I MHC PHOSPHOPEPTIDES FOR CANCER IMMUNOTHERAPY AND DIAGNOSIS” (Agenus Inc., priority 2010, published 2018).

The target in one experiment is HLA A*0201 (Homo sapiens, UniProt P04439, D140Y/D185E/D98H/E176V/E277Q/G131W/G231S/I119V/I121R/I166T/I218V/L300P/L318F/N151K/N90K/P208A/P217A/Q86G/Q94H/R138H/R169H/T345S). The experiment is described as follows: Binding of IRS-2 phosphopeptides to HLA A*0201. The text has this:
(§1) We have also shown that we can clone the T-cell receptor on the murine cytotoxic T-cells and then inject the corresponding DNA into normal human T-cells. This process turns them into cytotoxic T-cells that now recognize cancer cells that express the same class I phosphopeptides derived from IRS-2 and β-catenin. […] These experiments also open the door for using class I phosphopeptides in adopted T-cell therapy of cancer. This approach has shown dramatic success in the treatment of advanced stage metastatic melanoma. […] RVApSPTSGV (SEQ ID NO: 1289) binds to HLA A*0201 and both RVApSPTSGVK (SEQ ID NO: 53) and RVApSPTSGVKR (SEQ ID NO: 54) bind to HLA A*0301.

The target of a further experiment is HLA A*0301 (Homo sapiens, UniProt P04439). The experiment is described as follows: Binding / presentation of IRS-2 phosphopeptides by HLA A*0301.
Source text: as §1

Experiment [1] relates to cancer cell lines COV413.AAD.A4, DM331.AAD.A4, SLM2.AAD.A1, MCF7.AAD.A2, MDAMB231.AAD; JY EBV-BLCL control. The experiment can be described thus: Recognition of naturally processed and presented phosphopeptides on cancer cells by phosphopeptide-specific CTL (murine IFNγ release). The format is cell-based. As to conditions: FIG. 1A/1B; for recognition of the phosphopeptide on control cell line by phosphopeptide-specific CTL (murine IFNγ): JY EBV-BLCL control cell line; for recognition of the phosphopeptide on cancer cell lines by phosphopeptide-specific CTL (murine IFNγ): ovarian carcinoma, melanoma and breast carcinoma cell lines. Here is the method: FIGS. 1A and 1B are a graphic illustration of the recognition of naturally processed and presented phosphorylated peptides on cancer cells by the phosphopeptide-specific CTL. Phosphopeptide-specific CTL were incubated with the following cancer cell lines or EBV-transformed B lymphoblastoid cell lines (BLCL): COV413.AAD.A4 ovarian carcinoma, DM331.AAD.A4 and SLM2.AAD.A1 melanomas, MCF7.AAD.A2 and MDAMB231.AAD breast carcinomas, and JY EBV-BLCL. Supernatants were harvested and evaluated for the presence of murine IFNγ (produced by murine CTL lines). […] The designation “pS” denotes a phosphoserine residue. The ordinate indicates murine IFNγ in pg/ml. The abscissa indicates each cell line.

Square brackets hold non-standard residues; d marks the D form. Ends that are not written are not given here. pS = N[C@@H](COP(=O)(O)O)C(=O)O

For the substance RVApSPTSGVKR (RVA[pS]PTSGVKR), the “binding to HLA A*0201” value with HLA A*0201 is recorded as “Neither of the A*0301 peptides bind”. In addition, in the experiment with HLA A*0301, the “binding to HLA A*0301” value is “bind”.

Turning to RVApSPTSGVK (RVA[pS]PTSGVK), the “binding to HLA A*0201” value with HLA A*0201 is listed as “Neither of the A*0301 peptides bind”. For the same substance, the “binding to HLA A*0301” value with HLA A*0301 is “bind”.

“GLLGpSPVRA (GLLG[pS]PVRA) [phosphopeptide with phosphoserine residue recognized by CTL lines 6850 and 6960]”: in experiment [1], the “recognition of the phosphopeptide on control cell line by phosphopeptide-specific CTL (murine IFNγ)” value is on record as “not the control cell line” and the “recognition of the phosphopeptide on cancer cell lines by phosphopeptide-specific CTL (murine IFNγ)” value is on record as “recognize the phosphopeptide on all the cancer cell lines”.

Consider RVApSPTSGV (RVA[pS]PTSGV), for which, in the experiment with HLA A*0201, the “binding to HLA A*0201” value is given as “binds”. For the same substance, the “presentation by the A*0301 molecule” value with HLA A*0301 is on record as “cannot be presented”. Also, in experiment [1], the “recognition of the phosphopeptide on control cell line by phosphopeptide-specific CTL (murine IFNγ)” value was “not the control cell line” and the “recognition of the phosphopeptide on cancer cell lines by phosphopeptide-specific CTL (murine IFNγ)” value was “recognize the phosphopeptide on all the cancer cell lines”.
